The values below come from US20260250318A1, “COMPOSITIONS AND METHODS FOR CROSSING THE BLOOD BRAIN BARRIER” (VOYAGER THERAPEUTICS, INC., priority 2022, published 2026).

Assay [1] concerns the target T1, His-tagged ALPL (recombinant, soluble; SPR, BLI and ELISA of Examples 8 and 13) (UniProt P05186 18-502).
T1 construct: also called ALPL receptor; alkaline phosphatase tissue-nonspecific isozyme
T1 sequence: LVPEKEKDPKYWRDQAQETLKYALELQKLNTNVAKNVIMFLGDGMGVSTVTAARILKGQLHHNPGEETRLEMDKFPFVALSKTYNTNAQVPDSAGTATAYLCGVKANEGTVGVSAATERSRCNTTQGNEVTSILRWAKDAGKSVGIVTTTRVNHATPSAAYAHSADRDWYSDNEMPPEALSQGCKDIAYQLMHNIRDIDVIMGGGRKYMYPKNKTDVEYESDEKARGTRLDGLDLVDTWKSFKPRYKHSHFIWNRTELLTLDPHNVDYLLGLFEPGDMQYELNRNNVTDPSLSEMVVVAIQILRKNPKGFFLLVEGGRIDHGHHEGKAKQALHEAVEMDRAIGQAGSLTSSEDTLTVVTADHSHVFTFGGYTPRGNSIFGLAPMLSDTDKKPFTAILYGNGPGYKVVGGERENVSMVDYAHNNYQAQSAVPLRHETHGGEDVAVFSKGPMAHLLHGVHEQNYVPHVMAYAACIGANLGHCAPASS
Briefly: SPR (Biacore 8K), TTM-002 immobilized on CM5 chip at approximately 6300RU, His-tagged ALPL as analyte; value in the text differs from Table 41. In general terms: SPR reads the build-up and loss of mass on a sensor chip optically.

Assay [2] has as its target T2, human ALPL expressed on cells (alkaline phosphatase tissue-nonspecific isozyme, NM_000478.4) (human, UniProt P05186 18-501).
T2 sequence: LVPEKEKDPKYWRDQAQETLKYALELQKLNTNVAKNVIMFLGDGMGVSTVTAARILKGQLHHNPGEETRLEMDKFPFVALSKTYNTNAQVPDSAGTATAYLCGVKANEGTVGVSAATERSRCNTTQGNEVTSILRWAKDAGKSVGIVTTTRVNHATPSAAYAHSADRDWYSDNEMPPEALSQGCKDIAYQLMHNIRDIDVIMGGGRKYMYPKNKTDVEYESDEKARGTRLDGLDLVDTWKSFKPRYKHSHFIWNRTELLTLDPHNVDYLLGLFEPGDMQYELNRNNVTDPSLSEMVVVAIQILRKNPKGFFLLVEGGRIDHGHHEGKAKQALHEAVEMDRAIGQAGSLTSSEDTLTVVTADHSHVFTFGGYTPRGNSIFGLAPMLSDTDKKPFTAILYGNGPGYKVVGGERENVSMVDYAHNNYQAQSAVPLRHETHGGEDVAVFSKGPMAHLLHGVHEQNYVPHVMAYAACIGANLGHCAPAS
Briefly: cell-based or functional assay.

For assay [3], the target named is T3, ALPL with a deletion of the ER localization signal (ALPL transcript variant 2, NM_001127501) (human, UniProt P05186 56-501).
T3 sequence: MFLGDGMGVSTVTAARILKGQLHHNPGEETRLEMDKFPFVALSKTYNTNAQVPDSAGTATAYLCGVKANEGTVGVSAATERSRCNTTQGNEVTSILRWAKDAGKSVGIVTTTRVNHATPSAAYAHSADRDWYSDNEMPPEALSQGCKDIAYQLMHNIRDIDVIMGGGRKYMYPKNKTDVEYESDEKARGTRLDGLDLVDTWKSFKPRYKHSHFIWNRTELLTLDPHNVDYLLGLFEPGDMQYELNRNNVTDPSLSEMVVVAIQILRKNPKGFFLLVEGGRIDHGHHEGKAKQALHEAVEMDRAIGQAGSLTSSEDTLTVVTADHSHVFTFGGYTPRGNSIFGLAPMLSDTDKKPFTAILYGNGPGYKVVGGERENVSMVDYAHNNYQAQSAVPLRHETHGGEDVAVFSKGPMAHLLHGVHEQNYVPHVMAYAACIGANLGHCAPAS
The assay can be described thus: cell-based or functional assay.

Assay [4] addresses T2, human ALPL expressed on cells (alkaline …). The assay can be described thus: cell-based or functional assay. This is another data set of the same source.
The next assay deals with T4, ALPL (Homo sapiens, UniProt P05186).
T4 sequence (P05186 18-501): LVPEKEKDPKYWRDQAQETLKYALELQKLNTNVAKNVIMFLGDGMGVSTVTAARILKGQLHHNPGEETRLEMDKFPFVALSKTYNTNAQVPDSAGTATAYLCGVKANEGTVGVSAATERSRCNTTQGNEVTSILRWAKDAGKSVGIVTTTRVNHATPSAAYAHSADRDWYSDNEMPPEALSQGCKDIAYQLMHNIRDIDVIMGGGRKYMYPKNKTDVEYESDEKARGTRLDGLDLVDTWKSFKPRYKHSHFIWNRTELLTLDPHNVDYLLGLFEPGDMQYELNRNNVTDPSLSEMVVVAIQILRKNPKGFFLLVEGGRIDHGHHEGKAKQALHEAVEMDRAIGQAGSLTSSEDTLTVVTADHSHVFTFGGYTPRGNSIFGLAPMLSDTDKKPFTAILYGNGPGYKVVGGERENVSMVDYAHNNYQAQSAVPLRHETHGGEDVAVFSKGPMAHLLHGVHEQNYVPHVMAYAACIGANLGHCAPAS
Briefly: Transcytosis assay of AAV particles in MDCK cells engineered to overexpress ALPL. The following applies: qPCR of bottom chamber. Details: expressed in transfected cells; host or cells: MDCK (Madin-Darby Canine Kidney) cells. It counts as cell-based.

B1: TTM-002 capsid variant (AAV particle comprising the TTM-002 AAV9 capsid variant) (other)
chain 1: MAADGYLPDWLEDNLSEGIREWWALKPGAPQPKANQQHQDNARGLVLPGYKYLGPGNGLDKGEPVNAADAAALEHDKAYDQQLKAGDNPYLKYNHADAEFQERLKEDTSFGGNLGRAVFQAKKRLLEPLGLVEEAAKTAPGKKRPVEQSPQEPDSSAGIGKSGAQPAKKRLNFGQTGDTESVPDPQPIGEPPAAPSGVGSLTMASGGGAPVADNNEGADGVGSSSGNWHCDSQWLGDRVITTSTRTWALPTYNNHLYKQISNSTSGGSSNDNAYFGYSTPWGYFDFNRFHCHFSPRDWQRLINNNWGFRPKRLNFKLFNIQVKEVTDNNGVKTIANNLTSTVQVFTDSDYQLPYVLGSAHEGCLPPFPADVFMIPQYGYLTLNDGSQAVGRSSFYCLEYFPSQMLRTGNNFQFSYEFENVPFHSSYAHSQSLDRLMNPLIDQYLYYLSKTINGHDSPHKSGQNQQTLKFSVAGPSNMAVQGRNYIPGPSYRQQRVSTTVTQNNNSEFAWPGASSWALNGRNSLMNPGPAMASHKEGEDRFFPLSGSLIFGKQGTGRDNVDADKVMITNEEEIKTTNPVATESYGQVATNHQSAQAQAQTGWVQNQGILPGMVWQDRDVYLQGPIWAKIPHTDGNFHPSPLMGGFGMKHPPPQILIKNTPVPADPPTAFNKDKLNSFITQYSTGQVSVEIEWELQKENSKRWNPEIQYTSNYYKSNNVEFAVNTEGVYSEPRPIGTRYLTRNL
chain 2: TAPGKKRPVEQSPQEPDSSAGIGKSGAQPAKKRLNFGQTGDTESVPDPQPIGEPPAAPSGVGSLTMASGGGAPVADNNEGADGVGSSSGNWHCDSQWLGDRVITTSTRTWALPTYNNHLYKQISNSTSGGSSNDNAYFGYSTPWGYFDFNRFHCHFSPRDWQRLINNNWGFRPKRLNFKLFNIQVKEVTDNNGVKTIANNLTSTVQVFTDSDYQLPYVLGSAHEGCLPPFPADVFMIPQYGYLTLNDGSQAVGRSSFYCLEYFPSQMLRTGNNFQFSYEFENVPFHSSYAHSQSLDRLMNPLIDQYLYYLSKTINGHDSPHKSGQNQQTLKFSVAGPSNMAVQGRNYIPGPSYRQQRVSTTVTQNNNSEFAWPGASSWALNGRNSLMNPGPAMASHKEGEDRFFPLSGSLIFGKQGTGRDNVDADKVMITNEEEIKTTNPVATESYGQVATNHQSAQAQAQTGWVQNQGILPGMVWQDRDVYLQGPIWAKIPHTDGNFHPSPLMGGFGMKHPPPQILIKNTPVPADPPTAFNKDKLNSFITQYSTGQVSVEIEWELQKENSKRWNPEIQYTSNYYKSNNVEFAVNTEGVYSEPRPIGTRYLTRNL
chain 3: MASGGGAPVADNNEGADGVGSSSGNWHCDSQWLGDRVITTSTRTWALPTYNNHLYKQISNSTSGGSSNDNAYFGYSTPWGYFDFNRFHCHFSPRDWQRLINNNWGFRPKRLNFKLFNIQVKEVTDNNGVKTIANNLTSTVQVFTDSDYQLPYVLGSAHEGCLPPFPADVFMIPQYGYLTLNDGSQAVGRSSFYCLEYFPSQMLRTGNNFQFSYEFENVPFHSSYAHSQSLDRLMNPLIDQYLYYLSKTINGHDSPHKSGQNQQTLKFSVAGPSNMAVQGRNYIPGPSYRQQRVSTTVTQNNNSEFAWPGASSWALNGRNSLMNPGPAMASHKEGEDRFFPLSGSLIFGKQGTGRDNVDADKVMITNEEEIKTTNPVATESYGQVATNHQSAQAQAQTGWVQNQGILPGMVWQDRDVYLQGPIWAKIPHTDGNFHPSPLMGGFGMKHPPPQILIKNTPVPADPPTAFNKDKLNSFITQYSTGQVSVEIEWELQKENSKRWNPEIQYTSNYYKSNNVEFAVNTEGVYSEPRPIGTRYLTRNL
One may read the kon as the second-order rate constant of association. B1: the kon in assay [1] was 32000 M⁻¹ s⁻¹. In addition, in assay [2], the “fold change in luciferase activity relative to the pCMV6 control cells (cells transfected with ALPL)” value worked out at 24 fold. Also, the “fold change in luciferase activity relative to the pCMV6 control cells (cells transfected with ALPL comprising a deletion of the ER localization signal)” value in assay [3] worked out at 2 fold. Further, the “luciferase activity, fold change relative to pCMV6 transfected HEK 293T cells (ALPL transfected cells)” value in assay [4] stood at 44 fold.

B2: TTM-002: AAV9 capsid variant comprising HDSPHK (SEQ ID NO: 2) in loop IV (protein)
chain 1: MAADGYLPDWLEDNLSEGIREWWALKPGAPQPKANQQHQDNARGLVLPGYKYLGPGNGLDKGEPVNAADAAALEHDKAYDQQLKAGDNPYLKYNHADAEFQERLKEDTSFGGNLGRAVFQAKKRLLEPLGLVEEAAKTAPGKKRPVEQSPQEPDSSAGIGKSGAQPAKKRLNFGQTGDTESVPDPQPIGEPPAAPSGVGSLTMASGGGAPVADNNEGADGVGSSSGNWHCDSQWLGDRVITTSTRTWALPTYNNHLYKQISNSTSGGSSNDNAYFGYSTPWGYFDFNRFHCHFSPRDWQRLINNNWGFRPKRLNFKLFNIQVKEVTDNNGVKTIANNLTSTVQVFTDSDYQLPYVLGSAHEGCLPPFPADVFMIPQYGYLTLNDGSQAVGRSSFYCLEYFPSQMLRTGNNFQFSYEFENVPFHSSYAHSQSLDRLMNPLIDQYLYYLSKTINGHDSPHKSGQNQQTLKFSVAGPSNMAVQGRNYIPGPSYRQQRVSTTVTQNNNSEFAWPGASSWALNGRNSLMNPGPAMASHKEGEDRFFPLSGSLIFGKQGTGRDNVDADKVMITNEEEIKTTNPVATESYGQVATNHQSAQAQAQTGWVQNQGILPGMVWQDRDVYLQGPIWAKIPHTDGNFHPSPLMGGFGMKHPPPQILIKNTPVPADPPTAFNKDKLNSFITQYSTGQVSVEIEWELQKENSKRWNPEIQYTSNYYKSNNVEFAVNTEGVYSEPRPIGTRYLTRNL
chain 2: GHDSPHKSGQNQQT
In the case of B2, the “transcytosis in MDCK cells that did not express ALPL” value with ALPL is given as “No transcytosis was observed”.
